Reference: patent US20220017612A1 (TILOS THERAPEUTICS, published 2022)

T1: fusion protein of a human IgG1 Fc domain and human LAP-TGFβ3 (human, UniProt P10600 24-412)
T1 construct: also called Fc-huB3; human LAP-TGFβ3-Fc
T1 sequence: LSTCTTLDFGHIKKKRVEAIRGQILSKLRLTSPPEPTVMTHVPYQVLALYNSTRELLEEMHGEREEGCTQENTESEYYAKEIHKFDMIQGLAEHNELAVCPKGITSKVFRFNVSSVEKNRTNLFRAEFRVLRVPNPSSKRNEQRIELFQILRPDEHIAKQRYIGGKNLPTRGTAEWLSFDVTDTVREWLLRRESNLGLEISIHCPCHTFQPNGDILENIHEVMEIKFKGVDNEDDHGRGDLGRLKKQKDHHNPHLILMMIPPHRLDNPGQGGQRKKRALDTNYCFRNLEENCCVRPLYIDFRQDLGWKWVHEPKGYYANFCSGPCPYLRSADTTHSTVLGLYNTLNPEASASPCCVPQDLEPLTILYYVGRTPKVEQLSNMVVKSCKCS

B1: 22F9_hIgG1 (antibody, V domains shown)
VH: QVQLQQPGAELVKPGASVKLSCKASGYTFTSYWMHWVKQRPGQGLEWIGMIHPNSGSTNYNEKFKSKATLTVDKSSSTAYMQLSSLTSEDSAVYYCAYYDYDGFFDVWGTGTTVTVSS
VL: DIVLTQSPASLDVSLGQRATISCRASKSVSTSGYSYMHWYQQKSGQPPKLLIYLASNLESGVPARFSGSGSGTHFTLNIHPVEEEDAATYYCQHSRELPYTFGGGTKLEIK
B2: 20E6_H0.2aL1_hIgG1 (antibody)
heavy: not shown
light: DIQMTQSPSSLSASVGDRVTITCRASQDITNYLNWYQQKPGKAVKLLIYYTSRLHSGVPSRFSGSGSGTDYTLTISSLQPEDFATYFCQQGDTLPWTFGQGTKLEIKRTVAAPSVFIFPPSDEQLKSGTASVVCLLNNFYPREAKVQWKVDNALQSGNSQESVTEQDSKDSTYSLSSTLTLSKADYEKHKVYACEVTHQGLSSPVTKSFNRGEC
notes: also called 20E6_H0.2aL1_IgG1; humanized 20E6

Legend:
[1] = target: T2, human GARP and human LAP-TGFβ1 co-expressed on P3U1 cells (human, UniProt Q14392 20-662); experiment: flow cytometry, P3U1 cells
T2 construct: whole, on cells; also called P3U1 cells over-expressing human GARP and LAP-TGFβ1
T2 sequence (chain, as listed by the source, chain 1 of 2): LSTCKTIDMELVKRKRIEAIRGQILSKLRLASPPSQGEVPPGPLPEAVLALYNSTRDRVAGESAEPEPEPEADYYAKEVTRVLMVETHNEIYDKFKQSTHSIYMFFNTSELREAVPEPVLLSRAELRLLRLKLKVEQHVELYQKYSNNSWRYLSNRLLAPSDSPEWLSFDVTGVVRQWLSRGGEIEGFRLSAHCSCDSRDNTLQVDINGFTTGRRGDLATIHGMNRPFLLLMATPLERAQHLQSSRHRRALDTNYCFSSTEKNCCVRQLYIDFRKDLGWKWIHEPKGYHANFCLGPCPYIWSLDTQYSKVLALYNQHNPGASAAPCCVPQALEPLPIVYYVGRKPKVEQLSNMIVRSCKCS
T2 sequence (Q14392 20-662, chain 2 of 2): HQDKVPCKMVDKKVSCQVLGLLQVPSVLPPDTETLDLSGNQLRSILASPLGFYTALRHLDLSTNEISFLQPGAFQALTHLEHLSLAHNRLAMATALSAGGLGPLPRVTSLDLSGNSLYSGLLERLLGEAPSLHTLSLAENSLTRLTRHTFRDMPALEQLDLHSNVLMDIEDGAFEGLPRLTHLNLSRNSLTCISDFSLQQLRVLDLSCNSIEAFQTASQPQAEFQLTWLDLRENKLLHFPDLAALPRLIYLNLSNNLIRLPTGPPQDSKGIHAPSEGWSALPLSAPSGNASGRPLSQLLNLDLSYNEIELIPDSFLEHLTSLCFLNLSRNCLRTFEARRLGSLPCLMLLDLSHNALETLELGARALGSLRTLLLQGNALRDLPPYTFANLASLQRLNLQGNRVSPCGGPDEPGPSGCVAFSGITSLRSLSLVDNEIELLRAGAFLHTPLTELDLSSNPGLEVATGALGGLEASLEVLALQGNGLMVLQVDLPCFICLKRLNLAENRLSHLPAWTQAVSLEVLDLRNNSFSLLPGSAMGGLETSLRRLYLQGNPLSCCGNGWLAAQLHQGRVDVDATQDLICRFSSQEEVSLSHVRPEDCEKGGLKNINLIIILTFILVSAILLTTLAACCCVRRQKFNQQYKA
Method: This Example describes the binding of anti-LAP antibodies to LAP-TGFβ isoforms and LAP-TGFβ variants. In addition to antibodies 28G11_hIgG1, 22F9_hIgG1, and 20E6_hIgG1, anti-LAP antibodies 17G8_hIgG1, 24E3_hIgG1, and 2C9_(hyb) were also tested in this experiment. Briefly, 4×10⁵ each of (a) HT1080 cells, (b) HT1080 cells overexpressing human LAP-TGFβ1, (c) HT1080 cells overexpressing human LAP-TGFβ2, (d) HT1080 cells overexpressing human LAP-TGFβ3, (e) HT1080 cells overexpressing murine LAP-TGFβ1, (f) P3U1 cells, (g) P3U1 cells overexpressing LAP-TGFβ1 and GARP, and (h) P3U1 cells overexpressing LAP-TGFβ1 and LRRC33 were cultured in 96-well plates. The plates were centrifuged for 5 min at 1,500 rpm, liquid was removed, and cells were resuspended with 200 μL FACS buffer. The plates were centrifuged again, diluted primary antibody was added to each well, and the plates were incubated on ice for 20 minutes, followed by centrifugation. The cells were resuspended in 200 μL FACS buffer, centrifuged again, and resuspended in 50 μL diluted secondary antibody (Alexa647-anti-Human IgG or APC-anti-Mouse IgG). The plates were incubated on ice for 20 minutes in the dark, washed twice with 200 μL FACS buffer, and cells from each well (in 200 μL FACS buffer) were read on the Attune NXT instrument.

[2] = target: T3, mature human TGFβ1 (free TGFβ1, without LAP) (human, UniProt P01137 279-390); experiment: TGFβ1 ELISA after pre-incubation of 1000 pg mature TGFβ1 with antibody; loss of signal reflects binding
T3 construct: also called mature TGFβ; free human TGFβ1
T3 sequence (P01137 279-390 limits assumed): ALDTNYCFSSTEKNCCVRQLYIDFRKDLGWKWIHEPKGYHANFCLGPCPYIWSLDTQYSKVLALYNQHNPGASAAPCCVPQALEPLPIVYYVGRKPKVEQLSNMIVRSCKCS
Method: To determine whether anti-LAP antibodies 28G11_hIgG1, 22F9_hIgG1, 20E6_hIgG1, 17G8_hIgG1, and 24E3_hIgG1, bind to free human TGFβ1 (i.e., mature TGFβ1 that lacks LAP), the ability of the antibodies to inhibit an anti-TGFβ ELISA was evaluated. Briefly, mature TGFβ1 (1000 pg) was incubated with the indicated anti-LAP antibodies at 10 μg/mL, an isotype control antibody as a negative control or the commercially available anti-TGFβ antibody 1D11 as a positive control for 10 minutes on ice. For example, the 1D11 antibody is commercially available from any number of sellers, for example Bio x Cell Inc. (West Lebanon, N.H.). Supernatants were assayed in a TGFβ1 ELISA (R&D Systems) according to the manufacturer instructions to measure free TGFβ1. […] Note that Figure and FIG. are used interchangeably in this application.

[3] = target: T4, fusion protein of a human IgG1 Fc domain and human LAP-TGFβ1 (human, UniProt P01137 30-390); experiment: BLI, 2:1 heterogeneous ligand model, component 2
T4 construct: printed both as Fc-huB1 and LAP-TGFβ-Fc; also called Fc-huB1; Fc-human LAP
T4 sequence (P01137 30-390 limits assumed): as the sequence (chain, as listed by the source, chain 1 of 2) above
Method: (§1) The 20E6_H0.2aL1_IgG1 antibody was biotinylated using EZ-Link SulfoNHS-LC-Biotin (ThermoFisher). A streptavidin-functionalized tip was equilibrated in binding buffer (10 mM sodium phosphate, 150 mM sodium chloride, 1% (w/v) bovine serum albumin, 0.05% (w/v) sodium azide, pH 7.4) and dipped in a 10 μg/mL solution of biotinylated anti-LAP in binding buffer for 30 seconds to load the tip with antibody. The antibody-loaded tip was then washed in binding buffer and placed in a solution containing 0-24 nM of a fusion protein having a human IgG1 Fc domain fused to either human LAP-TGFβ1, human LAP-TGFβ2 or human LAP-TGFβ3. The antigen was allowed to bind to antibody for 5 minutes (association phase), and then the tip was moved to binding buffer (dissociation phase). The association and dissociation phases were fit to a 2:1 heterogenous ligand binding model to determine the binding rate constants. As shown in FIG. 21A and Table 17, 20E6_H0.2aL1_IgG1 bound with sub-nanomolar affinity to human LAP-TGFβ1, but not to human LAP-TGFβ2 (FIG. 21B) or LAP-TGFβ3 (FIG. 21C).

[4] = target: T4, fusion protein of a human IgG1 Fc …; experiment: BLI, 2:1 heterogeneous ligand model, component 1
Method: as §1

[5] = target: murine LAP-TGFβ1 overexpressed on cells (mouse, UniProt P04202 30-390); experiment: cell-based or functional assay
murine LAP-TGFβ1 overexpressed on cells, sequence (P04202 30-390): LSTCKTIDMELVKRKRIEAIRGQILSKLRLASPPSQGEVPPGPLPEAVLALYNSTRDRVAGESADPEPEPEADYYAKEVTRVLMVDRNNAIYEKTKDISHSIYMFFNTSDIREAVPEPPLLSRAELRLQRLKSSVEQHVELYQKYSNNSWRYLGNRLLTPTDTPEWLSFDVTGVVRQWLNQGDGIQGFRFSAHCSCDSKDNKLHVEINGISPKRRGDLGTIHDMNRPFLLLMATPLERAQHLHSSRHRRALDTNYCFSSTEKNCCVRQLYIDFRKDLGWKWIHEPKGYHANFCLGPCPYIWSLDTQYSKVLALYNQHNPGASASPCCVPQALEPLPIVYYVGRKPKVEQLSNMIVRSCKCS

[6] = target: T1, fusion protein of a human IgG1 Fc …; experiment: bio-layer interferometry, biotinylated antibody on streptavidin tip, Fc-huB3 in solution
Method: as §1

Binder | binding result [1] | binding result [2] | Kd [3] | koff [3] | kon [3] | Kd [4] | koff [4] | kon [4] | IC50 of inhibition of TGFβ1 activation [5] | binding result [6]
B1 | binds | no binding (tested: 10 µg/mL) |  |  |  |  |  |  |  | 
B2 |  |  | 0.35 nM | 0.000409 s⁻¹ | 1.18e+06 M⁻¹ s⁻¹ | 11.4 nM | 0.0369 s⁻¹ | 3.24e+06 M⁻¹ s⁻¹ | 1.7 µg/mL | no binding (tested: 24 nM)
